Measurements as given in publication PMC3679298.

Tests used:
[1] = molecular target: HLA-C*03:04 on single-antigen beads; assay: Luminex single-antigen HLA bead binding assay
[2] = molecular target: HLA-C*06:02 on single-antigen beads; assay: Luminex single-antigen HLA bead binding assay

| Kd [1] [nM] | MFI at 20 μg/ml [2] [MFI] | Kd [2] [nM] | Substance |
| --- | --- | --- | --- |
| 200 | < 500 | – | soluble KIR2DL2*001 Fc fusion protein (sKIR2DL2*001) (from UniProt P43627 22-245) |
| 700 | < 500 | 24000 | soluble KIR2DL2*003 Fc fusion protein (sKIR2DL2*003) (from UniProt P43627 22-245) |
| – | < 500 | 4300 | soluble KIR2DL2*006 Fc fusion protein (sKIR2DL2*006) (from UniProt P43627 22-245) |
| 1000 | – | – | soluble KIR2DL3*001 Fc fusion protein (sKIR2DL3*001) (from UniProt P43628 22-245) |
| 1200 | – | – | soluble KIR2DL3*002 Fc fusion protein (sKIR2DL3*002) (from UniProt P43628 22-245) |
| 100 | < 500 | 7000 | soluble KIR2DL3*005 Fc fusion protein (sKIR2DL3*005) (from UniProt P43628 22-245) |
